Results on two substances are retold here after US20230312678A1.

Test [1] concerns the target ED-tagged full-length PD-1 receptor stably expressed in Jurkat cells (PathHunter PD-1 Signaling Bioassay, DiscoverX) (UniProt Q15116). Kind of test: cell-based or functional assay.
Test [2] has the same target. Kind of test: cell-based or functional assay. This is another data set of the same source.

Like-named read-outs stand apart in the source and are kept apart here.

UniProt Q15116, sequence (Q15116 25-288): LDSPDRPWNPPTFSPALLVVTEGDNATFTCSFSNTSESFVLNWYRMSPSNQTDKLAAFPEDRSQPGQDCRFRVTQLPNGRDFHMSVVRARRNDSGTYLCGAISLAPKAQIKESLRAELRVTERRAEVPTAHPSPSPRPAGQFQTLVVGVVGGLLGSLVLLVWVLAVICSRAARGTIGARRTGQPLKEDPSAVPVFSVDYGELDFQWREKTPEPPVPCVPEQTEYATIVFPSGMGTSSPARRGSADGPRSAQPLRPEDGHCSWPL

For “hPD-L2-Fc-GPI artificial synapses engineered from exosomes (hPDL2-Fc-GPI fusion polypeptide displayed on the exosome surface) (Fc fusion)”, the Relative Light Units (RLU), modified PathHunter PD-1 Signaling Bioassay; fold against soluble PD-L2-Fc is 10000 fold in test [1] and 1000 fold in test [2].
On to “hPD-L1-Fc-GPI artificial synapses engineered from exosomes (hPDL1-Fc-GPI fusion polypeptide displayed on the exosome surface) (Fc fusion)”, for which the Relative Light Units (RLU), modified PathHunter PD-1 Signaling Bioassay; fold against soluble PD-L1-Fc in test [1] was 10000 fold; in test [2], 1000 fold.
